{"source": "the supplement of paper PMC10126150", "note": "± gives the standard deviation of the averaged measurements.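 Also: ATP exposure 15 min at 22 °C before imaging.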", "data": [{"test_system": "ATP", "test": "switch fluorescence ratio, 500 uM ATP over buffer (Cy3 cluster intensity, sum of 5 cycles each) (fold (ratio)); higher = stronger signal-on switching upon ATP binding; sequences stand for … in TCGTCGGCAGCGTCAGATGTGTATAAGAGACAGTTTTTTTTTTTTTTTTTTTTTTTTT…TC", "conditions": "aptamer strand: ATP DNA aptamer (quencher-CACCTGGGGGAGTATTGCGGAGGAAGG + anchor), 100 nM annealed; ATP concentration: 500 uM", "outline": "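The fluorescence ratio divides summed target-cycle Cy3 intensity by summed buffer-cycle Cy3 intensity for each cluster and is averaged per switch-domain sequence. Cy3-labelled switching-strand clusters on a modified Illumina MiSeq flow-cell were annealed to 100 nM quencher-labelled ATP aptamer, then imaged in selection buffer and again after 15 min with 500 uM ATP at 22 °C. Five such cycles were run, with NaOH stripping and re-annealing between them, and clusters outside 100-1000 RFU were excluded.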", "values": [{"sequence": "TTTAGGACGA", "switch fluorescence ratio": "0.981 ± 0.017"}, {"sequence": "TTTAGGAGGT", "switch fluorescence ratio": "1.04 ± 0.049"}, {"sequence": "TTTAGGATCC", "switch fluorescence ratio": "0.983 ± 0.022"}, {"sequence": "TTTAGGCAT", "switch fluorescence ratio": "0.986 ± 0.028"}, {"sequence": "TTTAGGGAAA", "switch fluorescence ratio": "0.961 ± 0.033"}, {"sequence": "TTTAGGGACA", "switch fluorescence ratio": "1.15 ± 0.1"}, {"sequence": "TTTAGGGACT", "switch fluorescence ratio": "1.02 ± 0.024"}, {"sequence": "TTTAGGGATT", "switch fluorescence ratio": "1.03 ± 0.037"}, {"sequence": "TTTAGGGGGT", "switch fluorescence ratio": "0.991 ± 0.023"}, {"sequence": "TTTAGGTACT", "switch fluorescence ratio": "1.25 ± 0.34"}, {"sequence": "TTTAGGTAGT", "switch fluorescence ratio": "0.975 ± 0.021"}, {"sequence": "TTTAGGTCAA", "switch fluorescence ratio": "0.9943 ± 0.0031"}, {"sequence": "TTTAGGTGCA", "switch fluorescence ratio": "1.16 ± 0.14"}, {"sequence": "TTTAGGTGTG", "switch fluorescence ratio": "1.02 ± 0.039"}, {"sequence": "TTTAGGTTAA", "switch fluorescence ratio": "0.9752 ± 0.0074"}, {"sequence": "TTTAGGTTGT", "switch fluorescence ratio": "0.9984 ± 0.0073"}, {"sequence": "TTTAGTACGT", "switch fluorescence ratio": "1.02 ± 0.057"}, {"sequence": "TTTAGTATTT", "switch fluorescence ratio": "1.01 ± 0.037"}, {"sequence": "TTTAGTCGCA", "switch fluorescence ratio": "0.998 ± 0.035"}, {"sequence": "TTTAGTGAAC", "switch fluorescence ratio": "1.025 ± 0.0089"}, {"sequence": "TTTAGTGAAT", "switch fluorescence ratio": "0.9966 ± 0.0051"}, {"sequence": "TTTAGTGCCT", "switch fluorescence ratio": "1.04 ± 0.012"}, {"sequence": "TTTAGTGTGC", "switch fluorescence ratio": "1.01 ± 0.03"}, {"sequence": "TTTAGTTCCG", "switch fluorescence ratio": "0.935 ± 0.025"}, {"sequence": "TTTAGTTGAC", "switch fluorescence ratio": "0.9956 ± 0.0092"}, {"sequence": "TTTAGTTTG", "switch fluorescence ratio": "1 ± 0.037"}, {"sequence": "TTTAGTTTTC", "switch fluorescence ratio": "0.991 ± 0.019"}, {"sequence": "TTTATAACAC", "switch fluorescence ratio": "1.05 ± 0.013"}, {"sequence": "TTTATACCGA", "switch fluorescence ratio": "1.067 ± 0.004"}, {"sequence": "TTTATACCTA", "switch fluorescence ratio": "1.03 ± 0.023"}, {"sequence": "TTTATACCTT", "switch fluorescence ratio": "1.07 ± 0.1"}, {"sequence": "TTTATATAAT", "switch fluorescence ratio": "0.984 ± 0.038"}, {"sequence": "TTTATATGTT", "switch fluorescence ratio": "1.03 ± 0.04"}, {"sequence": "TTTATCAATT", "switch fluorescence ratio": "0.991 ± 0.063"}, {"sequence": "TTTATCAGTT", "switch fluorescence ratio": "0.951 ± 0.035"}, {"sequence": "TTTATCCGCC", "switch fluorescence ratio": "1.77 ± 0.21"}, {"sequence": "TTTATCCGCG", "switch fluorescence ratio": "1.25 ± 0.25"}, {"sequence": "TTTATCGAGC", "switch fluorescence ratio": "1.02 ± 0.027"}, {"sequence": "TTTATCGGTA", "switch fluorescence ratio": "1.01 ± 0.03"}, {"sequence": "TTTATCGTGG", "switch fluorescence ratio": "0.9721 ± 0.002"}, {"sequence": "TTTATCTGAA", "switch fluorescence ratio": "0.9783 ± 0.0017"}, {"sequence": "TTTATCTTGG", "switch fluorescence ratio": "1.02 ± 0.038"}, {"sequence": "TTTATGAAAG", "switch fluorescence ratio": "0.97 ± 0.05"}, {"sequence": "TTTATGAAGC", "switch fluorescence ratio": "1.06 ± 0.076"}, {"sequence": "TTTATGAGTG", "switch fluorescence ratio": "0.997 ± 0.031"}, {"sequence": "TTTATGCACC", "switch fluorescence ratio": "1.07 ± 0.017"}, {"sequence": "TTTATGCCGG", "switch fluorescence ratio": "1.01 ± 0.029"}, {"sequence": "TTTATGGGGG", "switch fluorescence ratio": "0.999 ± 0.034"}, {"sequence": "TTTATGTGGG", "switch fluorescence ratio": "1.05 ± 0.12"}, {"sequence": "TTTATTAGCA", "switch fluorescence ratio": "0.968 ± 0.05"}, {"sequence": "TTTATTATGT", "switch fluorescence ratio": "0.994 ± 0.034"}, {"sequence": "TTTATTCGGC", "switch fluorescence ratio": "1.02 ± 0.065"}, {"sequence": "TTTATTCGGT", "switch fluorescence ratio": "1.01 ± 0.074"}, {"sequence": "TTTATTCTAA", "switch fluorescence ratio": "0.976 ± 0.02"}, {"sequence": "TTTATTGAGC", "switch fluorescence ratio": "0.989 ± 0.039"}, {"sequence": "TTTATTGAGG", "switch fluorescence ratio": "1.03 ± 0.011"}, {"sequence": "TTTATTGGGA", "switch fluorescence ratio": "1.07 ± 0.13"}, {"sequence": "TTTATTGTAA", "switch fluorescence ratio": "0.991 ± 0.031"}, {"sequence": "TTTATTGTGC", "switch fluorescence ratio": "1.03 ± 0.054"}, {"sequence": "TTTATTTGCA", "switch fluorescence ratio": "0.9545 ± 0.0068"}, {"sequence": "TTTATTTGTA", "switch fluorescence ratio": "0.99 ± 0.035"}, {"sequence": "TTTATTTGTC", "switch fluorescence ratio": "0.992 ± 0.053"}, {"sequence": "TTTATTTTAT", "switch fluorescence ratio": "1.02 ± 0.057"}, {"sequence": "TTTATTTTCA", "switch fluorescence ratio": "0.9924 ± 0.0046"}, {"sequence": "TTTCAAAAAC", "switch fluorescence ratio": "1.03 ± 0.037"}, {"sequence": "TTTCAAACCC", "switch fluorescence ratio": "0.995 ± 0.013"}, {"sequence": "TTTCAAATTG", "switch fluorescence ratio": "0.973 ± 0.028"}, {"sequence": "TTTCAATGGA", "switch fluorescence ratio": "0.974 ± 0.018"}, {"sequence": "TTTCACTTGG", "switch fluorescence ratio": "1.03 ± 0.027"}, {"sequence": "TTTCAGAAAT", "switch fluorescence ratio": "1.91 ± 1.6"}, {"sequence": "TTTCAGAACT", "switch fluorescence ratio": "1.0027 ± 0.00088"}, {"sequence": "TTTCAGAGTT", "switch fluorescence ratio": "0.993 ± 0.033"}, {"sequence": "TTTCAGTCTA", "switch fluorescence ratio": "1.03 ± 0.024"}, {"sequence": "TTTCAGTTCC", "switch fluorescence ratio": "1.08 ± 0.002"}, {"sequence": "TTTCATACGT", "switch fluorescence ratio": "1.02 ± 0.05"}, {"sequence": "TTTCATAGC", "switch fluorescence ratio": "1.1 ± 0.065"}, {"sequence": "TTTCATATGG", "switch fluorescence ratio": "0.994 ± 0.024"}, {"sequence": "TTTCATCCTG", "switch fluorescence ratio": "1.0331 ± 0.00038"}, {"sequence": "TTTCATCTCT", "switch fluorescence ratio": "1 ± 0.04"}, {"sequence": "TTTCATGGGT", "switch fluorescence ratio": "1 ± 0.018"}, {"sequence": "TTTCATTATC", "switch fluorescence ratio": "1.02 ± 0.016"}, {"sequence": "TTTCATTGTA", "switch fluorescence ratio": "1.01 ± 0.013"}, {"sequence": "TTTCCACAT", "switch fluorescence ratio": "0.9719 ± 0.0091"}, {"sequence": "TTTCCAGCGT", "switch fluorescence ratio": "1.03 ± 0.036"}, {"sequence": "TTTCCAGGCA", "switch fluorescence ratio": "1.03 ± 0.0051"}, {"sequence": "TTTCCAGGG", "switch fluorescence ratio": "1.17 ± 0.031"}, {"sequence": "TTTCCAGGGA", "switch fluorescence ratio": "1.034 ± 0.0029"}, {"sequence": "TTTCCAGTAA", "switch fluorescence ratio": "1.036 ± 0.0068"}, {"sequence": "TTTCCCAGGA", "switch fluorescence ratio": "1.13 ± 0.038"}, {"sequence": "TTTCCCCTTT", "switch fluorescence ratio": "1.08 ± 0.15"}, {"sequence": "TTTCCCTGGT", "switch fluorescence ratio": "1.12 ± 0.11"}, {"sequence": "TTTCCGCGGA", "switch fluorescence ratio": "0.97 ± 0.024"}, {"sequence": "TTTCCGGAAT", "switch fluorescence ratio": "1.661 ± 0.011"}, {"sequence": "TTTCCGGTTT", "switch fluorescence ratio": "1.6 ± 1.1"}, {"sequence": "TTTCCGTTGG", "switch fluorescence ratio": "1.12 ± 0.17"}, {"sequence": "TTTCCTCCCT", "switch fluorescence ratio": "1.84 ± 0.5"}, {"sequence": "TTTCCTGAGG", "switch fluorescence ratio": "0.991 ± 0.016"}, {"sequence": "TTTCCTGGAT", "switch fluorescence ratio": "1.04 ± 0.052"}, {"sequence": "TTTCCTGGCG", "switch fluorescence ratio": "1.024 ± 0.0089"}, {"sequence": "TTTCCTTGCT", "switch fluorescence ratio": "1.49 ± 0.59"}]}]}
